Tests used:
[1] = molecular target: yeast-displayed unmutated SARS-CoV-2 RBD (Wuhan-Hu-1) (SARS-CoV-2, UniProt P0DTC2); assay: flow cytometry on cells
[2] = molecular target: SARS-CoV-2 HexaPro Spike protein for cryoEM analysis (SARS-CoV-2 (Wuhan-Hu-1), UniProt P0DTC2, stabilised); assay: cryo-EM structure

B1: S2H14 IgG1 (LS) (antibody, V domains shown)
VH: not shown
VL: NFMLTQPHSVSESPGKTVTISCTRSSGSIASNYVQWYQQRPGSSPTTVIYEDNQRPSGVPDRFSGSIDSSSNSASLTISGLKTEDEADYYCQSYDSSNQVFGGGTKLTVL
binding result [1]: binds

B2: S2H97 Fab (Fab, V domains shown)
VH: QVRLVQSGAEVKKSGESLKISCKGSGYSFTSYWIGWVRQMPGKGLEWMGIIYPGDSDTRYSPSFQGQVTISADKSISTVYLQWSSLKASDTAMYYCARQWSHYTYDYYYWGQGTLVTISS
VL: QSVLTQPASVSGSPGQSITISCTGISSDVGGYNSVSWYQQHPGKAPKLMIYDVTNRPSGVSNRFSGSKSGNTASLTISGLQAEDEADYYCSSYTSSSTPPYVFGTGTKVSVL
binding result [2]: binds

B3: S2D106 Fab (Fab, V domains shown)
VH: EVQLVQSGAEVKKPGSSVKVSCKASGGPFSSSAISWVRQAPGQGLEWMGGIIPMVGTANYAQKFQGRVTITADESTSTAYMELSSLRSEDTAVYYCARDSRYCSGGSCYSVWFDPWGQGTLVTVSS
VL: not shown
binding result [2]: binds
